Results as given in the RNAGym collection of RNA variant scans (doi:10.1073/pnas.2313332121).

B1: TPR t1 (parent)
chain: GACCAAUCUGCCCUCAGAGCUCGAGAACAUCUUCGGAUGCAGAGGAGGCAGGCUUCGGUGGCGCGAUAGCGCCAACGUCCUCAACCUCCAAUGCAUCCCACCACAUGAUGAUGCCUGAAGAGCCUUGGUUUUUUG

Variants of: B1
Assay: polymerase ribozyme fitness, log enrichment relative to wild type (log ratio); higher = more active; in vitro selection for triplet polymerase activity
Method in brief: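 Each subunit of a heterodimeric triplet polymerase ribozyme was mutagenized into a library by PCR, transcribed, and subjected to one round of in vitro selection, run in triplicate. Libraries were annealed with a biotinylated primer, the partner subunit and triplets, incubated frozen at −7 °C, and extended constructs were gel-excised, captured on streptavidin beads and recovered by RT-PCR. Input and output libraries were sequenced on Illumina, keeping genotypes with ≥10 input reads and ≥1 read per output. Fitness is log base 2 of genotype enrichment divided by wild-type enrichment, from inverse-variance-weighted replicate averages.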

Row | Variant | polymerase ribozyme fitness (log ratio)
1 | GACCAAUCUGCCCUCAGAGCUCGAGAACAUCUUCGGAUGCAGAGGAGGCAGGCUUCGGUGGCGCGAUAGCGCCAACGUCCUCAACCUCCAAUGCAUCCCACCACAUGAUGAUGCCUGAAGAGCCUGAGUUUUUUG [U126G G127A] | -2.54
2 | GACCAAUCUGCCCUCAGAGCUCGAGAACAUCUUCGGAUGCAGAGGAGGCAGGCUUCGGUGGCGCGAUAGCGCCAACGUCCUCAACCUCCAAUGCAUCCCACCACAUGAUGAUGCCUGAAGAGCCUUGGCAUUUUG [U129C U130A] | -0.859
3 | GACCAAUCUGCCCUCAGAGCUCGAGAACAUCUUCGGAUGCAGAGGAGGCAGGCUUCGGUGGCGCGAUAGCGCCAACGUCCUCAACCUCCAAUGCAUCCCACCACAUGAUGAUGCCUGAAGAGCCUUGGAUUCUUG [U129A U132C] | -0.64
4 | GACCAAUCUGCCCUCAGAGCUCGAGAACAUCUUCGGAUGCAGAGGAGGCAGGCUUCGGUGGCGCGAUAGCGCCAACGUCCUCAACCUCCAAUGCAUCCCACCACAUGAUGAUGCCUGAAGAGCGUUGGUUGUUUG [C124G U131G] | 1.33
5 | GACCAAUCUGCCCUCAGAGCUCGAGAACAUCUUCGGAUGCAGAGGAGGCAGGCUUCGGUGGCGCGAUAGCGCCAACGUCCUCAACCUCCAAUGCAUCCCACCACAUGAUGAUGCCUGAAGAGCGUUGGUUAUUUG [C124G U131A] | 2.2
6 | GACCAAUCUGCCCUCAGAGCUCGAGAACAUCUUCGGAUGCAGAGGAGGCAGGCUUCGGUGGCGCGAUAGCGCCAACGUCCUCAACCUCCAAUGCAUCCCACCACAUGAUGAUGCCUGAAGAGCCUUAGUUUUUUG [G127A] | -1.25
7 | GACCAAUCUGCCCUCAGAGCUCGAGAACAUCUUCGGAUGCAGAGGAGGCAGGCUUCGGUGGCGCGAUAGCGCCAACGUCCUCAACCUCCAAUGCAUCCCACCACAUGAUGAUGCCUGAAGAGCCUUUGUUUUUUG [G127U] | -0.639
8 | GACCAAUCUGCCCUCAGAGCUCGAGAACAUCUUCGGAUGCAGAGGAGGCAGGCUUCGGUGGCGCGAUAGCGCCAACGUCCUCAACCUCCAAUGCAUCCCACCACAUGAUGAUGCCUGAAGAGCCUUCGUUUUUUG [G127C] | -1.03
9 | GACCAAUCUGCCCUCAGAGCUCGAGAACAUCUUCGGAUGCAGAGGAGGCAGGCUUCGGUGGCGCGAUAGCGCCAACGUCCUCAACCUCCAAUGCAUCCCACCACAUGAUGAUGCCUGAAGAGCCUGGGUGUUUUG [U126G U130G] | -3.64
10 | GACCAAUCUGCCCUCAGAGCUCGAGAACAUCUUCGGAUGCAGAGGAGGCAGGCUUCGGUGGCGCGAUAGCGCCAACGUCCUCAACCUCCAAUGCAUCCCACCACAUGAUGAUGCCUGAAGAGCCUUGGGUUUAUG [U129G U133A] | -2
11 | GACCAAUCUGCCCUCAGAGCUCGAGAACAUCUUCGGAUGCAGAGGAGGCAGGCUUCGGUGGCGCGAUAGCGCCAACGUCCUCAACCUCCAAUGCAUCCCACCACAUGAUGAUGCCUGAAGAGCCUUGCUUUUUUG [G128C] | -2.23
12 | GACCAAUCUGCCCUCAGAGCUCGAGAACAUCUUCGGAUGCAGAGGAGGCAGGCUUCGGUGGCGCGAUAGCGCCAACGUCCUCAACCUCCAAUGCAUCCCACCACAUGAUGAUGCCUGAAGAGCCUUGUUUUUUUG [G128U] | -1.57
13 | GACCAAUCUGCCCUCAGAGCUCGAGAACAUCUUCGGAUGCAGAGGAGGCAGGCUUCGGUGGCGCGAUAGCGCCAACGUCCUCAACCUCCAAUGCAUCCCACCACAUGAUGAUGCCUGAAGAGCCUUGAUUUUUUG [G128A] | -1.65
14 | GACCAAUCUGCCCUCAGAGCUCGAGAACAUCUUCGGAUGCAGAGGAGGCAGGCUUCGGUGGCGCGAUAGCGCCAACGUCCUCAACCUCCAAUGCAUCCCACCACAUGAUGAUGCCUGAAGAGCCAUCGUUUUUUG [U125A G127C] | -1.91
15 | GACCAAUCUGCCCUCAGAGCUCGAGAACAUCUUCGGAUGCAGAGGAGGCAGGCUUCGGUGGCGCGAUAGCGCCAACGUCCUCAACCUCCAAUGCAUCCCACCACAUGAUGAUGCCUGAAGAGCCUAGCUUUUUUG [U126A G128C] | -2.86
16 | GACCAAUCUGCCCUCAGAGCUCGAGAACAUCUUCGGAUGCAGAGGAGGCAGGCUUCGGUGGCGCGAUAGCGCCAACGUCCUCAACCUCCAAUGCAUCCCACCACAUGAUGAUGCCUGAAGAGCCUUGGCUUAUUG [U129C U132A] | -0.43
17 | GACCAAUCUGCCCUCAGAGCUCGAGAACAUCUUCGGAUGCAGAGGAGGCAGGCUUCGGUGGCGCGAUAGCGCCAACGUCCUCAACCUCCAAUGCAUCCCACCACAUGAUGAUGCCUGAAGAGCCAUGGUUCUUUG [U125A U131C] | -0.281
18 | GACCAAUCUGCCCUCAGAGCUCGAGAACAUCUUCGGAUGCAGAGGAGGCAGGCUUCGGUGGCGCGAUAGCGCCAACGUCCUCAACCUCCAAUGCAUCCCACCACAUGAUGAUGCCUGAAGAGCCAUGGUUGUUUG [U125A U131G] | 0.203
19 | GACCAAUCUGCCCUCAGAGCUCGAGAACAUCUUCGGAUGCAGAGGAGGCAGGCUUCGGUGGCGCGAUAGCGCCAACGUCCUCAACCUCCAAUGCAUCCCACCACAUGAUGAUGCCUGAAGAGCCUUUGACUUUUG [G127U U129A U130C] | -1.27
20 | GACCAAUCUGCCCUCAGAGCUCGAGAACAUCUUCGGAUGCAGAGGAGGCAGGCUUCGGUGGCGCGAUAGCGCCAACGUCCUCAACCUCCAAUGCAUCCCACCACAUGAUGAUGCCUGAAGAGCGUUGGUUUAUUG [C124G U132A] | 2.04
21 | GACCAAUCUGCCCUCAGAGCUCGAGAACAUCUUCGGAUGCAGAGGAGGCAGGCUUCGGUGGCGCGAUAGCGCCAACGUCCUCAACCUCCAAUGCAUCCCACCACAUGAUGAUGCCUGAAGAGCCUUGGUUGUAUG [U131G U133A] | -0.289

Row | Variant | polymerase ribozyme fitness (log ratio)
22 | GACCAAUCUGCCCUCAGAGCUCGAGAACAUCUUCGGAUGCAGAGGAGGCAGGCUUCGGUGGCGCGAUAGCGCCAACGUCCUCAACCUCCAAUGCAUCCCACCACAUGAUGAUGCCUGAAGAGCCUUGGCUGUUUG [U129C U131G] | 0.298
23 | GACCAAUCUGCCCUCAGAGCUCGAGAACAUCUUCGGAUGCAGAGGAGGCAGGCUUCGGUGGCGCGAUAGCGCCAACGUCCUCAACCUCCAAUGCAUCCCACCACAUGAUGAUGCCUGAAGAGCCUUGGCUAUUUG [U129C U131A] | -0.49
24 | GACCAAUCUGCCCUCAGAGCUCGAGAACAUCUUCGGAUGCAGAGGAGGCAGGCUUCGGUGGCGCGAUAGCGCCAACGUCCUCAACCUCCAAUGCAUCCCACCACAUGAUGAUGCCUGAAGAGCUUUGGAUUUUUG [C124U U129A] | -0.35
25 | GACCAAUCUGCCCUCAGAGCUCGAGAACAUCUUCGGAUGCAGAGGAGGCAGGCUUCGGUGGCGCGAUAGCGCCAACGUCCUCAACCUCCAAUGCAUCCCACCACAUGAUGAUGCCUGAAGAGCCUUCAUUUUUUG [G127C G128A] | -1.79
26 | GACCAAUCUGCCCUCAGAGCUCGAGAACAUCUUCGGAUGCAGAGGAGGCAGGCUUCGGUGGCGCGAUAGCGCCAACGUCCUCAACCUCCAAUGCAUCCCACCACAUGAUGAUGCCUGAAGAGCCUUCGUCUUUUG [G127C U130C] | 0.0399
27 | GACCAAUCUGCCCUCAGAGCUCGAGAACAUCUUCGGAUGCAGAGGAGGCAGGCUUCGGUGGCGCGAUAGCGCCAACGUCCUCAACCUCCAAUGCAUCCCACCACAUGAUGAUGCCUGAAGAGCCAGGGUUUUUUG [U125A U126G] | -1.8
28 | GACCAAUCUGCCCUCAGAGCUCGAGAACAUCUUCGGAUGCAGAGGAGGCAGGCUUCGGUGGCGCGAUAGCGCCAACGUCCUCAACCUCCAAUGCAUCCCACCACAUGAUGAUGCCUGAAGAGCCUUGGCUUUUGG [U129C U134G] | 1.11
29 | GACCAAUCUGCCCUCAGAGCUCGAGAACAUCUUCGGAUGCAGAGGAGGCAGGCUUCGGUGGCGCGAUAGCGCCAACGUCCUCAACCUCCAAUGCAUCCCACCACAUGAUGAUGCCUGAAGAGCUUUGGUUUUGUG [C124U U133G] | 0.97
30 | GACCAAUCUGCCCUCAGAGCUCGAGAACAUCUUCGGAUGCAGAGGAGGCAGGCUUCGGUGGCGCGAUAGCGCCAACGUCCUCAACCUCCAAUGCAUCCCACCACAUGAUGAUGCCUGAAGAGCCUGGGAUUUUUG [U126G U129A] | -2.97
31 | GACCAAUCUGCCCUCAGAGCUCGAGAACAUCUUCGGAUGCAGAGGAGGCAGGCUUCGGUGGCGCGAUAGCGCCAACGUCCUCAACCUCCAAUGCAUCCCACCACAUGAUGAUGCCUGAAGAGCUUUGGUUUUUUU [C124U G135U] | -0.0615
32 | GACCAAUCUGCCCUCAGAGCUCGAGAACAUCUUCGGAUGCAGAGGAGGCAGGCUUCGGUGGCGCGAUAGCGCCAACGUCCUCAACCUCCAAUGCAUCCCACCACAUGAUGAUGCCUGAAGAGCCUUGGCUUUGUG [U129C U133G] | 0.0769
33 | GACCAAUCUGCCCUCAGAGCUCGAGAACAUCUUCGGAUGCAGAGGAGGCAGGCUUCGGUGGCGCGAUAGCGCCAACGUCCUCAACCUCCAAUGCAUCCCACCACAUGAUGAUGCCUGAAGAGCCUUGAUUUUAUG [G128A U133A] | -3.85
34 | GACCAAUCUGCCCUCAGAGCUCGAGAACAUCUUCGGAUGCAGAGGAGGCAGGCUUCGGUGGCGCGAUAGCGCCAACGUCCUCAACCUCCAAUGCAUCCCACCACAUGAUGAUGCCUGAAGAGCCAUGGUUUUUUG [U125A] | -0.431
35 | GACCAAUCUGCCCUCAGAGCUCGAGAACAUCUUCGGAUGCAGAGGAGGCAGGCUUCGGUGGCGCGAUAGCGCCAACGUCCUCAACCUCCAAUGCAUCCCACCACAUGAUGAUGCCUGAAGAGCCCUGGUUUUUUG [U125C] | -1.8
36 | GACCAAUCUGCCCUCAGAGCUCGAGAACAUCUUCGGAUGCAGAGGAGGCAGGCUUCGGUGGCGCGAUAGCGCCAACGUCCUCAACCUCCAAUGCAUCCCACCACAUGAUGAUGCCUGAAGAGCCGUGGUUUUUUG [U125G] | -1.01
37 | GACCAAUCUGCCCUCAGAGCUCGAGAACAUCUUCGGAUGCAGAGGAGGCAGGCUUCGGUGGCGCGAUAGCGCCAACGUCCUCAACCUCCAAUGCAUCCCACCACAUGAUGAUGCCUGAAGAGCUUUGGUUUUUUG [C124U] | 1.54
38 | GACCAAUCUGCCCUCAGAGCUCGAGAACAUCUUCGGAUGCAGAGGAGGCAGGCUUCGGUGGCGCGAUAGCGCCAACGUCCUCAACCUCCAAUGCAUCCCACCACAUGAUGAUGCCUGAAGAGCGUUGGUUUUUUG [C124G] | 1.59
39 | GACCAAUCUGCCCUCAGAGCUCGAGAACAUCUUCGGAUGCAGAGGAGGCAGGCUUCGGUGGCGCGAUAGCGCCAACGUCCUCAACCUCCAAUGCAUCCCACCACAUGAUGAUGCCUGAAGAGCCUUGGUUUCUUG [U132C] | -0.134
40 | GACCAAUCUGCCCUCAGAGCUCGAGAACAUCUUCGGAUGCAGAGGAGGCAGGCUUCGGUGGCGCGAUAGCGCCAACGUCCUCAACCUCCAAUGCAUCCCACCACAUGAUGAUGCCUGAAGAGCCUUGGUUUAUUG [U132A] | -0.0436
41 | GACCAAUCUGCCCUCAGAGCUCGAGAACAUCUUCGGAUGCAGAGGAGGCAGGCUUCGGUGGCGCGAUAGCGCCAACGUCCUCAACCUCCAAUGCAUCCCACCACAUGAUGAUGCCUGAAGAGCCUUGGACUUUUG [U129A U130C] | -0.653
42 | GACCAAUCUGCCCUCAGAGCUCGAGAACAUCUUCGGAUGCAGAGGAGGCAGGCUUCGGUGGCGCGAUAGCGCCAACGUCCUCAACCUCCAAUGCAUCCCACCACAUGAUGAUGCCUGAAGAGCCUUGCUUUUAUG [G128C U133A] | -2.85
